Results on three molecules are retold here after US9360486B2, “Allergen fragments” (Biomay AG, priority 2007, dated 2016).

The test system of experiment [1] is Amb a 1-specific TCL and TCC. The experiment can be described thus: Proliferation of Amb a 1-specific TCL and TCC with allergens and chains. The format is cell-based, human. The method, then: Peripheral blood mononuclear cells (PBMC) were isolated from heparinized blood of allergic patients by Ficoll density gradient centrifugation. To generate allergen-specific T cell lines (TCL) and T cell clones (TCC), 1.5×10^6 PBMC were stimulated with optimal doses of ragweed or mugwort extract (4 μg/ml) or rAmb a 1.3 (10 μg/ml) in 24-well flat-bottomed culture plates (Costar, USA). After 5 days human rIL-2 (10 U/ml, Boehringer, Mannheim, Germany) were added and cultures were continued for additional 7 days. Then, T cell blasts were isolated by density centrifugation. The majority of T cell blasts was further expanded with IL-2 and irradiated PBMC. A small number of T cell blasts were used to establish monoclonal T cell cultures by limiting dilution: 0.3 T cells/well were seeded into 96 well round bottom plates (Nunclone) in the presence of 2×10^5 irradiated (60 Gy) PBMC, 0.25% v/v PHA (Gibco, USA) and rIL-2 (4 U/well) in the medium mentioned above. After 14-21 days, growing microcultures were expanded at weekly intervals with irradiated PBMC and rIL-2. The specificity of TCC was assessed in proliferation assays using irradiated allogeneic or HLA-matched PBMC or irradiated EBV-transformed allogeneic B-cells and 5 μg/ml Amb a 1.3. After 48 hours, cellular uptake of tritiated (^3H)-thymidine was performed to measure proliferation in counts per minute (cpm). When the stimulation index (SI; ratio between cpm obtained in cultures containing TCC plus autologous APC plus antigen, and cpm obtained in cultures containing TCC and APC alone) was >10, responses were considered as positive. Allergen-specific TCC were expanded by alternating turns of stimulation with autologous irradiated APC and allergen or with allogeneic feeder cells and rIL-2.
Proliferation and cytokine responses were determined.
When compared with the results of the T cell epitope recognition in Table 3, 45/46 patients (98%) would recognize one or more epitopes in the Amb a 1 alpha-chain. […]

The subject of experiment [2] is IgE of sera from ragweed allergic patients. The experiment can be described thus: Human IgE ELISA of purified alpha chain. Type of experiment: binding. The conditions noted are these: modified (version 1) alpha chain of Amb a 1.3; 12 patients (FIG. 19). The text has this: If a peptide of the invention is to be used as a diagnostic reagent, it is not necessary that the peptide or protein has reduced IgE binding activity compared to the native Amb a 1 allergen. IgE binding activity of peptides can be determined by, for example, an enzyme linked immunosorbent assay (ELISA) using, for example, sera obtained from an individual (i.e. an allergic individual) that has been previously exposed to the native Amb a 1. Briefly, a peptide to be tested is coated onto wells of a microtiter plate. After washing and blocking the wells, antibody solution consisting of the serum or plasma of an allergic individual who has been exposed to the peptide being tested or the protein from which it was derived is incubated in the wells. The plasma is generally depleted of IgG before incubation. However, the depletion is not necessary if highly specific anti IgE-antibodies are used. Furthermore, allergic individuals who have not undergone specific immunotherapy have in some cases almost no detectable IgG antibodies specific for the allergen in question. […] The amount of IgE binding is then quantified and compared to the amount of IgE bound by a purified native Amb a 1 protein. Alternatively, the binding activity of a peptide can be determined by Western blot analysis. […] After incubation with the labelled secondary antibody, the amount of IgE bound is then determined and quantified. […]
(An ELISA detects its analyte on a solid surface through an enzyme-linked reagent.)

Experiment [3] relates to IgE of sera from ragweed pollen allergic patients. Kind of experiment: SDS-PAGE IgE immunoblot with patients' sera. The format is binding, human. To be noted: standard procedure for SDS-PAGE/immunoblotting. As for the experimental part:
Membrane strips were incubated with sera from ragweed pollen allergic patients (lanes 1-29) or with serum from a non-allergic donor (lane C). Bound IgE was detected with ^125I-labeled goat anti-human IgE. Ragweed pollen-sensitized patients were recruited in Austria (lanes 1-13) or in Italy (lanes 14-29).
The proteins were analyzed via SDS-PAGE using 15% acrylamide gels and 0.1% Coomassie staining with a molecular weight standard RPN 756 (GE Healthcare Life Sciences). Sera from allergic patients were tested for positive IgE-reactivity. rAmb a 1 and rArt v 6 were separated on 15% (w/w) polyacrylamide gels and electroblotted onto a PVDF membrane. After blocking the non-specific protein binding sites with Blocking buffer (per L: 7.5 g Na2HPO4, 1 g NaH2PO4, 5 g BSA and 5 mL Tween 20), the membrane was incubated with patients' sera (diluted 1:10 in Blocking buffer) for more than 6 hours at room temperature. The membrane was washed for at least 30 minutes with Blocking buffer before it was incubated with radiolabeled [^125 I]-anti human IgE (RAST, 5 µCi, MedPro) diluted in Blocking buffer (1:40) overnight at room temperature. After a second 30-minute wash, the membrane was placed onto an imaging plate. The screen was exposed for at least 24 hours and developed using a PhosphoImager Bas-1800 II scanner for detection and the instrument's supporting software (Fujifilm).
nAmb a 1 undergoes spontaneously proteolysis during purification and it is cleaved into two chains, alpha and beta chain, respectively.
(In western blotting, separated proteins are transferred to a membrane and probed.)

For experiment [4], the system named is Amb a 1-specific TCL and TCC. Kind of experiment: Cytokine production in TCL and TCC (ELISA of supernatants). The format is cell-based, human. The method, then: T cells were washed and incubated with irradiated autologous APC in the presence of the stimulant (5 μg/ml) for 48 hours. Cytokine levels in the resulting supernatants were measured in ELISA using matched antibody pairs (Endogen, USA) (sensitivity limits: IL-4: 9 pg/ml, IFN-γ: 9 pg/ml). Cultures containing TCC and APC alone served as negative controls. TCC with a ratio of IFN-γ/IL-4>10 were classified as Th1, 0.1-10 as Th0 and <0.1 as Th2. […] Proliferation and cytokine responses were determined.

Experiment [5] deals with IgE of sera from ragweed pollen allergic patients. The experiment can be described thus: IgE dot-blot / non-denaturing IgE binding of recombinant Amb a 1.3. On the set-up: species or system human. To be noted: sera from 17 ragweed pollen allergic patients. An excerpt:
E. coli-produced rAmb a 1.3 was purified as described above and dotted on nitrocellulose membranes.
Thus, another approach for producing recombinant reagents with full IgE-binding activity was pursued, as described in section 4. Despite its low IgE-binding activity, rAmb a 1.3 was successfully used in vitro for T cell epitope mapping and proliferation assays, as correct folding is not essential for T cell recognition (see example 2).

“And” between values parts separate entries of the source, which are not always exact repeats. Identical values can stand only once. “Also recorded” adds a separate entry of the source.

B1: alpha chain of Amb a 1.3 (modified version 1): recombinant modified (version 1) Amb a 1.3 alpha chain, aa 174-397, 224 amino acids; called alpha chain in Example 4 (protein)
alpha: VLPGGMIKSNDGPPILRQASDGDTINVAGSSQIWIDHCSLSKSFDGLVDVTLGSTHVTISNCKFTQQSKAILLGADDTHVQDKGMLATVAFNMFTDNVDQRMPRCRFGFFQVVNNNYDRWGTYAIGGSSAPTILCQGNRFLAPDDQIKKNVLARTGTGAAESMAWNWRSDKDLLENGAIFVTSGSDPVLTPVQSAGMIPAEPGEAAIKLTSSAGVLSCRPGAPC
modifications: Amb a 1 alpha chain
As to B1, in experiment [1] (modified (version 1) chains of Amb a 1.3), the “reaction of 2 TCC specific for epitopes within Amb a 1-alpha” value is on record as “reacted”. Further, the “IgE-binding activity in vitro (ELISA)” value in experiment [2] was “low/no IgE-binding activity”.

B2: rAmb a 1.3: E. coli-produced full-length recombinant Amb a 1.3 isoform (R2 clone) (protein)
chain: AEGVGEILPSVNETRSLQACEALNIIDKCWRGKADWENNRQALADCAQGFAKGTYGGKWGDVYTVTSNLDDDVANPKEGTLRFAAAQNRPLWIIFKNDMVINLNQELVVNSDKTIDGRGVKVEIINGGLTLMNVKNIIIHNINIHDVKVLPGGMIKSNDGPPILRQASDGDTINVAGSSQIWIDHCSLSKSFDGLVDVTLGSTHVTISNCKFTQQSKAILLGADDTHVQDKGMLATVAFNMFTDNVDQRMPRCRFGFFQVVNNNYDRWGTYAIGGSSAPTILCQGNRFLAPDDQIKKNVLARTGTGAAESMAWNWRSDKDLLENGAIFVTSGSDPVLTPVQSAGMIPAEPGEAAIKLTSSAGVFSCHPGAPC
modifications: left off: things letters cannot carry
As for B2, in experiment [3], the “reaction with patients IgE after reduction and heat treatment” value was “reacted with patients IgE”. The “cytokine production compared with ragweed extract (FIG. 5) or natural Amb a 1 (FIG. 6)” value in experiment [4] is “comparable cytokine production”. Besides, the “IgE reactivity in non-denaturing assays (dot blot, ELISA)” value in experiment [5] is reported as “not able to bind human IgE; also recorded: very weak or no IgE reactivity”. In addition, in experiment [1] (PBMC, TCL and TCC, different concentrations), the “T cell proliferation compared with natural Amb a 1” value is listed as “comparable T cell proliferations”.

B3: beta-chain: recombinant modified (version 1) Amb a 1.3 beta chain, aa 26-173, 148 amino acids; called beta chain in Example 4 (protein)
beta: AEGVGEILPSVNETRSLQACEAYNIIDKCWRGKADWENNRQALADCAQGFAKGTYGGKWGDVYTVTSNLDDDVANPKEGTLRFAAAQNRPLWIIFKNDMVINLNQELVVNSDKTIDGRGVKVEIINGGLTLMNVKNIIIHNINIHDVK
modifications: Amb a 1 beta chain
B3: the “proliferation, % of the response to Amb a 1” value in experiment [1] (2 TCL with strong reactivity to Amb a 1 (FIG. 20), modified (version 1) chains of Amb a 1.3) is 38% and 19%.
